Test results from US9751932B2, “Anti-big-endothelin-1 (big-ET-1) antibodies and uses thereof” (Regeneron Pharmaceuticals, Inc., priority 2012, dated 2017).
Numbering of substitutions follows the chain as printed.

T1: mouse big-ET-1 (SEQ ID NO:437) (Mus musculus, UniProt P22387)
T1 sequence (P22387 53-91 limits assumed): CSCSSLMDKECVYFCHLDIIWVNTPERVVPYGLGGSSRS

T2: human big-ET-1 (SEQ ID NO:434) (Homo sapiens, UniProt P05305)
T2 sequence (P05305 53-90 limits assumed): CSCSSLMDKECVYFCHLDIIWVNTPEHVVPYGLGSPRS

B1: H4H6330P: anti-big-ET-1 antibody, human IgG4 Fc; HCVR/LCVR SEQ ID NO: 210/218 (antibody, V domains shown)
VH: EVQLVESGGGLVQPGGSLRLSCAASGFTFSNYAMSWVRQAPGKGLEWVSAVSGSGVGTYYADSVKGRFTISRDNSKNTLYLQMKSLSAEDTALYYCTKTLGGTHAFDIWGQGTMVTVSS
VL: DIQMTQSPSTLSASVGDRVTITCRASQSISRWLAWYQQKPGKAPKLLIYKASSLESGVPSRFSGSGSGTEFTVTINSLQPDDFATYYCQQYNSYSSFGQGTKLEIK
modifications: human IgG4 Fc
B2: H4H6345P: anti-big-ET-1 antibody, human IgG4 Fc; HCVR/LCVR SEQ ID NO: 354/362 (antibody, V domains shown)
VH: EVQLVESGGGLVQPGGSLRLSCAASGFIFSSYAMTWVRQAPGKGLEWVSAISGSGVSTYYADSVKGRFTISRDNSKNTLYLQMNSLRIEDTAVYYCGKARTGTHAFDIWGQGTMVTVSS
VL: B1 VL with S56T, V73L, N76S, A84G, Q99P, L103V, E104D
modifications: human IgG4 Fc
B3: H4H6353P: anti-big-ET-1 antibody, human IgG4 Fc; HCVR/LCVR SEQ ID NO: 386/394 (antibody, V domains shown)
VH: EVQLVESGGGLVKPGGSLRLSCAASGFSFNYAWMSWVRQAPGKGLEWIGRIKSKINGGTTDYTAPVKGRFTISRDDSKNTLYLQMNSLKTEDTAVYYCRGDEDFWGQGTLVTVSS
VL: DVVMTQSPLSLPVTLGQPASISCRSSQSLVYSDGFTYLNWFRQRPGQSPRRLIYKVSNRDSGVPDRFSGSGSGTDFTLRISRVEAEDVGIYYCMQGTHWPYTFGQGTKLEIK
modifications: human IgG4 Fc

Columns and labels:
[1] = molecular target: T1, mouse big-ET-1 (SEQ ID NO:437); experiment: Surface plasmon resonance (Biacore) binding, mAb capture format, 37° C.; settings: analyte mouse big-ET-1, mAb capture
Experimental: (§1) Measurements were conducted on a T200 Biacore instrument (Biacore Life Sciences division of GE Healthcare, Piscataway, N.J.). […] Different concentrations of small-ET-1 (SEQ ID NO:435), human big-ET-1 (SEQ ID NO:434) or mouse big-ET-1 (SEQ ID NO:437) were injected over the anti-big-ET-1 captured surfaces at a flow rate of 100 μl/min. Peptide binding was monitored for 3 min while dissociation of mAb-bound peptide was monitored for 4 min in HBST running buffer (0.01 M HEPES pH 7.4, 0.15 M NaCl, 3 mM EDTA, 0.005% v/v Surfactant P20). Kinetic association (ka) and dissociation (kd) rate constants were determined by processing and fitting the data to a 1:1 binding model using Scrubber 2.0 curve fitting software.

[2] = molecular target: T2, human big-ET-1 (SEQ ID NO:434); experiment: as above; settings: analyte human big-ET-1, mAb capture
Experimental: as §1

Row | Molecule | ka [1] [M/s] | kd [1] [s⁻¹] | ka [2] [M/s] | kd [2] [s⁻¹]
1 | B1 | 1.5e+06 | 0.072 | 1.42e+06 | 0.0324
2 | B2 | 1.5e+06 | 0.0974 | 663000 | 0.058
3 | B3 | 2900 | 0.00236 | 1.14e+06 | 0.00116
